Measured values: patent US20230038720A1

Each binder was assayed against TACE (assay: cell-based or functional assay).
Work on cyclo(GVCICRRGVCICRR) (disulfide (positions not given here); not fully specified (bridges)) [Peptide 4] yielded a TACE IC50 of 0.546 µg/mL. cyclo(GVCLCRRGVCLCRR) (disulfide (positions not given here); not fully specified (bridges)) [Peptide 3] showed a TACE IC50 of 1.15 µg/mL. For cyclo(GVCACRRRFCACRR) (disulfide (positions not given here); not fully specified (bridges)) [Peptide 10], the TACE IC50 was 2.74 µg/mL. Work on cyclo(GVCICRRRFCSCRR) (disulfide (positions not given here); not fully specified (bridges)) [Peptide 7] yielded a TACE IC50 of 1.87 µg/mL. cyclo(GACICRRRFCLCRR) (disulfide (positions not given here); not fully specified (bridges)) [Peptide 9] gave a TACE IC50 of 0.515 µg/mL. cyclo(GVCSCRRRFCLCRR) (disulfide (positions not given here); not fully specified (bridges)) [Peptide 8] was tested, and the TACE IC50 was 2.61 µg/mL. For cyclo(GVCSCRRRFCICRR) (disulfide (positions not given here); not fully specified (bridges)) [Peptide 6], the TACE IC50 was 3.19 µg/mL. Binder cyclo(GVCICRRRFCLCRR) (disulfide (positions not given here); not fully specified (bridges)) [Peptide 2] has a TACE IC50 of 2.2 µg/mL. In the case of cyclo(GVCACARRFCACRR) (disulfide (positions not given here); not fully specified (bridges)) [Peptide 5], the TACE IC50 is reported as 1.83 µg/mL. cyclo(GVCICRRRVCICGR) (disulfide (positions not given here); not fully specified (bridges)) [Peptide 1] gave a TACE IC50 of 0.858 µg/mL.
